Source: paper PMC11194110, “Single-molecule imaging reveals a direct role of CTCF’s zinc fingers in SA interaction and cluster-dependent RNA recruitment” (Nucleic Acids Research, 2024)

What was measured:
CTCF WT (human) [1] = assay: single-molecule DNA curtains lifetime; details: DNA curtains: CTCF 10 nM (ZF9-CT 50 nM, ZF4-7 200 nM) or SA 100 nM, load at 50 mM NaCl, wash at 300 mM NaCl, buffer, pH and temperature not given in material; for binding signal (min (lifetime)): 300 mM NaCl wash, photobleaching corrected
CTCF WT (human) [2] = assay: single-molecule DNA curtains (TIRF); details: 300 mM NaCl wash; DNA curtains: CTCF 10 nM (ZF9-CT 50 nM, ZF4-7 200 nM) or SA 100 nM; load at 50 mM NaCl, wash at 300 mM NaCl; buffer, pH and temperature not given in material
[3] = biological target: CTCF WT (human CCCTC-binding factor, full-length) (human) (UniProt P49711); assay: single-molecule photobleaching step counting on DNA curtains; labeled CTCF on λ-DNA at 50 mM NaCl without prior removal of unspecifically bound CTCF, 25 ng/μl 100 bp Cy3-RNA added; bleaching steps counted at positions of captured RNA; both lasers at 140 mW
[4] = biological target: CTCF ΔNC (truncation mutant missing both CTCF termini, containing all 11 ZFs) (human); assay: as above
[5] = test system: CTCF ΔRBR (ΔRBR+ΔZF1,10,11) (human); assay: single-molecule DNA curtains lifetime; details: 300 mM NaCl wash; CBS enrichment similar to WT; DNA curtains: CTCF 10 nM (ZF9-CT 50 nM, ZF4-7 200 nM) or SA 100 nM; load at 50 mM NaCl, wash at 300 mM NaCl; buffer, pH and temperature not given in material
CTCF ZF9-CT (human) = test system: T1, CTCF ZF9-CT (human); assay: single-molecule DNA curtains lifetime; details: not enriched on CBSs (negative enrichment); prefers AT-rich DNA; DNA curtains: CTCF 10 nM (ZF9-CT 50 nM, ZF4-7 200 nM) or SA 100 nM; load at 50 mM NaCl, wash at 300 mM NaCl; buffer, pH and temperature not given in material
T1 sequence: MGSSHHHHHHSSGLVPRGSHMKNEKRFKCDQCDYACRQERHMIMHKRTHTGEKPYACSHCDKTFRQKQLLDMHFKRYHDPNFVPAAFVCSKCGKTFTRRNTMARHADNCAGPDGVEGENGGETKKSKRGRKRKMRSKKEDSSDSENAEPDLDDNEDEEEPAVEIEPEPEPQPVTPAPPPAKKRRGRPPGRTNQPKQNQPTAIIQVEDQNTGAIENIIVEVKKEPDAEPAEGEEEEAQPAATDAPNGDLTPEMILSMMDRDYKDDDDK

[6] = test system: T2, CTCF ZF4-7 del1-350;del461-727 (human); assay: single-molecule DNA curtains lifetime; details: not enriched on CBSs; DNA curtains: CTCF 10 nM (ZF9-CT 50 nM, ZF4-7 200 nM) or SA 100 nM; load at 50 mM NaCl, wash at 300 mM NaCl; buffer, pH and temperature not given in material
T2 sequence: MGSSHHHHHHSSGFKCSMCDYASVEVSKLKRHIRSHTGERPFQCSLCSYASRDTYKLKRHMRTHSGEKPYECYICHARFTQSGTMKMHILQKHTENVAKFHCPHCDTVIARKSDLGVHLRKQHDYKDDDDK

[7] = test system: CTCF WT;SA2 (human;human?); assay: single-molecule DNA curtains (TIRF); details: preincubated 10 nM CTCF, 100 nM SA2; 300 mM NaCl wash; DNA curtains: CTCF 10 nM (ZF9-CT 50 nM, ZF4-7 200 nM) or SA 100 nM; load at 50 mM NaCl, wash at 300 mM NaCl; buffer, pH and temperature not given in material
[8] = test system: CTCF WT;SA1 (human;human?); assay: single-molecule DNA curtains (TIRF); details: preincubated 10 nM CTCF, 100 nM SA1; 300 mM NaCl wash; DNA curtains: CTCF 10 nM (ZF9-CT 50 nM, ZF4-7 200 nM) or SA 100 nM; load at 50 mM NaCl, wash at 300 mM NaCl; buffer, pH and temperature not given in material
[9] = biological target: T3, CTCF WT (human CCCTC-binding factor, full-length) (human, UniProt P49711 1-727, fluorescent dye (AF568, Atto 643 or Alexa Fluor 660) on the Halo-tag through a chloroalkane linker; unlabeled in the SA transcription experiments); assay: single-molecule DNA curtains (TIRF microscopy), combined loading; 100 or 400 nM SA-LD655 preincubated with 10 nM CTCF in CTCF 100 buffer (40 mM Tris pH 7.5, 100 mM NaCl, 1 mM MgCl2, 1 mg/ml BSA, 1 mM DTT) 5 min at RT; 30 s on λ-DNA with 4× CBSs in 50 mM NaCl, then 3 min (lifetimes: up to 15 min) in 300 mM NaCl; SA read at CBS-bound CTCF (enrichment, lifetime); details: both partners purified
T3 construct: 11 zinc fingers and two unstructured termini; also called AF-568-CTCF-WT; AF568-CTCF; source: High Five (Hi5) insect cells, purified (Ni-NTA, heparin, Superose 6); not shown: Halo, N-terminal, kept
T3 sequence (looked up): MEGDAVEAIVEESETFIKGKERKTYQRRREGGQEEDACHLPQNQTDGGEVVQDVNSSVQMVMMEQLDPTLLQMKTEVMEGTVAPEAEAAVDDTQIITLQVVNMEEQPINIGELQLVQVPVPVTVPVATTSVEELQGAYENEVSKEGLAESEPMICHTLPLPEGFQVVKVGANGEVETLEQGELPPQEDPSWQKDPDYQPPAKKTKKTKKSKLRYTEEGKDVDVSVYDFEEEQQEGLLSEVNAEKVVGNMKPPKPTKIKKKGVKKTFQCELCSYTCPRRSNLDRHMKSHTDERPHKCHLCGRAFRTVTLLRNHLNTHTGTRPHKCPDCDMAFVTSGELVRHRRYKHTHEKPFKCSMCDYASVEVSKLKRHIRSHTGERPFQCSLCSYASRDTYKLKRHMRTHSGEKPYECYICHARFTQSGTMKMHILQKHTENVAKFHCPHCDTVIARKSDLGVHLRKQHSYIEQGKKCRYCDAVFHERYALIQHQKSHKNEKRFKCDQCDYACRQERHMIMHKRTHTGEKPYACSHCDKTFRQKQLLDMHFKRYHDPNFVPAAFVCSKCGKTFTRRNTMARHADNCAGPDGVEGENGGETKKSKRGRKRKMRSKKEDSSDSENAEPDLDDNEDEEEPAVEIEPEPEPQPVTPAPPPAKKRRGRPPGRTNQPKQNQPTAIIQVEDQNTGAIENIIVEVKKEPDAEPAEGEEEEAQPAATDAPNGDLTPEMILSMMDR

Molecule: 1xT7-1xCBS λ-DNA
- binding signal (min (lifetime)) (CTCF WT (human) [1]): 50
- binding signal (fold enrichment on CBS) (CTCF WT (human) [2]): 7

Molecule: CTCF WT (human CCCTC-binding factor, full-length) (from UniProt P49711 1-727) (natural protein)
- photobleaching steps in CTCF-RNA clusters [3]: 8.8 steps
- stoichiometry N (CTCF molecules) [3]: 17

Molecule: λ-DNA (non-CBS)
- binding signal (fold lower lifetime than on CBS) (CTCF WT (human) [1]; coats DNA at 50 mM NaCl, mostly washed off at 300 mM): > 40

Molecule: CTCF ΔNC (truncation mutant missing both CTCF termini, containing all 11 ZFs) (domain or fragment)
- photobleaching steps in clusters on DNA (bleaching steps) [4]: 9

Molecule: 2xT7-4xCBSs λ-DNA
- binding signal (min (lifetime)) (CTCF WT (human) [1]): 50
- binding signal (fold reduced lifetime vs WT) [5]: 2.5
- binding signal (fold reduced lifetime vs WT) (CTCF ZF9-CT (human)): 25
- binding signal (fold reduced lifetime vs WT) [6]: 90
- binding signal (fold enrichment on CBS) (CTCF WT (human) [2]): 16
- binding signal (fold SA2 enrichment on CBS) [7]: 8
- binding signal (fold SA1 enrichment on CBS) [8]: 10

B1: Cohesin subunit SA1 (natural protein, UniProt Q8WVM7 1-1258, looked up)
chain: MITSELPVLQDSTNETTAHSDAGSELEETEVKGKRKRGRPGRPPSTNKKPRKSPGEKSRIEAGIRGAGRGRANGHPQQNGEGEPVTLFEVVKLGKSAMQSVVDDWIESYKQDRDIALLDLINFFIQCSGCRGTVRIEMFRNMQNAEIIRKMTEEFDEDSGDYPLTMPGPQWKKFRSNFCEFIGVLIRQCQYSIIYDEYMMDTVISLLTGLSDSQVRAFRHTSTLAAMKLMTALVNVALNLSIHQDNTQRQYEAERNKMIGKRANERLELLLQKRKELQENQDEIENMMNSIFKGIFVHRYRDAIAEIRAICIEEIGVWMKMYSDAFLNDSYLKYVGWTLHDRQGEVRLKCLKALQSLYTNRELFPKLELFTNRFKDRIVSMTLDKEYDVAVEAIRLVTLILHGSEEALSNEDCENVYHLVYSAHRPVAVAAGEFLHKKLFSRHDPQAEEALAKRRGRNSPNGNLIRMLVLFFLESELHEHAAYLVDSLWESSQELLKDWECMTELLLEEPVQGEEAMSDRQESALIELMVCTIRQAAEAHPPVGRGTGKRVLTAKERKTQIDDRNKLTEHFIITLPMLLSKYSADAEKVANLLQIPQYFDLEIYSTGRMEKHLDALLKQIKFVVEKHVESDVLEACSKTYSILCSEEYTIQNRVDIARSQLIDEFVDRFNHSVEDLLQEGEEADDDDIYNVLSTLKRLTSFHNAHDLTKWDLFGNCYRLLKTGIEHGAMPEQIVVQALQCSHYSILWQLVKITDGSPSKEDLLVLRKTVKSFLAVCQQCLSNVNTPVKEQAFMLLCDLLMIFSHQLMTGGREGLQPLVFNPDTGLQSELLSFVMDHVFIDQDEENQSMEGDEEDEANKIEALHKRRNLLAAFSKLIIYDIVDMHAAADIFKHYMKYYNDYGDIIKETLSKTRQIDKIQCAKTLILSLQQLFNELVQEQGPNLDRTSAHVSGIKELARRFALTFGLDQIKTREAVATLHKDGIEFAFKYQNQKGQEYPPPNLAFLEVLSEFSSKLLRQDKKTVHSYLEKFLTEQMMERREDVWLPLISYRNSLVTGGEDDRMSVNSGSSSSKTSSVRNKKGRPPLHKKRVEDESLDNTWLNRTDTMIQTPGPLPAPQLTSTVLRENSRPMGDQIQEPESEHGSEPDFLHNPQMQISWLGQPKLEDLNRKDRTGMNYMKVRTGVRHAVRGLMEEDAEPIFEDVMMSSRSQLEDMNEEFEDTMVIDLPPSRNRRERAELRPDFFDSAAIIEDDSGFGMPMF
modifications: LD655-CoA dye on the ybbR-tag (Sfp labeling)
notes: cohesin subunit SA1; also called SA-LD655; source: High Five (Hi5) insect cells, purified (Ni-NTA, heparin, Superose 6); not shown: ybbR, C-terminal, kept
- fold enrichment on the CBSs with CTCF [9]: 10 fold

B2: Cohesin subunit SA2 (natural protein, UniProt Q8N3U4 1-1231, looked up)
chain: MIAAPEIPTDFNLLQESETHFSSDTDFEDIEGKNQKQGKGKTCKKGKKGPAEKGKGGNGGGKPPSGPNRMNGHHQQNGVENMMLFEVVKMGKSAMQSVVDDWIESYKHDRDIALLDLINFFIQCSGCKGVVTAEMFRHMQNSEIIRKMTEEFDEDSGDYPLTMAGPQWKKFKSSFCEFIGVLVRQCQYSIIYDEYMMDTVISLLTGLSDSQVRAFRHTSTLAAMKLMTALVNVALNLSINMDNTQRQYEAERNKMIGKRANERLELLLQKRKELQENQDEIENMMNAIFKGVFVHRYRDAIAEIRAICIEEIGIWMKMYSDAFLNDSYLKYVGWTMHDKQGEVRLKCLTALQGLYYNKELNSKLELFTSRFKDRIVSMTLDKEYDVAVQAIKLLTLVLQSSEEVLTAEDCENVYHLVYSAHRPVAVAAGEFLYKKLFSRRDPEEDGMMKRRGRQGPNANLVKTLVFFFLESELHEHAAYLVDSMWDCATELLKDWECMNSLLLEEPLSGEEALTDRQESALIEIMLCTIRQAAECHPPVGRGTGKRVLTAKEKKTQLDDRTKITELFAVALPQLLAKYSVDAEKVTNLLQLPQYFDLEIYTTGRLEKHLDALLRQIRNIVEKHTDTDVLEACSKTYHALCNEEFTIFNRVDISRSQLIDELADKFNRLLEDFLQEGEEPDEDDAYQVLSTLKRITAFHNAHDLSKWDLFACNYKLLKTGIENGDMPEQIVIHALQCTHYVILWQLAKITESSSTKEDLLRLKKQMRVFCQICQHYLTNVNTTVKEQAFTILCDILMIFSHQIMSGGRDMLEPLVYTPDSSLQSELLSFILDHVFIEQDDDNNSADGQQEDEASKIEALHKRRNLLAAFCKLIVYTVVEMNTAADIFKQYMKYYNDYGDIIKETMSKTRQIDKIQCAKTLILSLQQLFNEMIQENGYNFDRSSSTFSGIKELARRFALTFGLDQLKTREAIAMLHKDGIEFAFKEPNPQGESHPPLNLAFLDILSEFSSKLLRQDKRTVYVYLEKFMTFQMSLRREDVWLPLMSYRNSLLAGGDDDTMSVISGISSRGSTVRSKKSKPSTGKRKVVEGMQLSLTEESSSSDSMWLSREQTLHTPVMMQTPQLTSTIMREPKRLRPEDSFMSVYPMQTEHHQTPLDYNRRGTSLMEDDEEPIVEDVMMSSEGRIEDLNEGMDFDTMDIDLPPSKNRRERTELKPDFFDPASIMDESVLGVSMF
modifications: LD655-CoA dye on the ybbR-tag (Sfp labeling)
notes: cohesin subunit SA2; also called SA-LD655; source: High Five (Hi5) insect cells, purified (Ni-NTA, heparin, Superose 6); not shown: ybbR, C-terminal, kept
- fold enrichment on the CBSs with CTCF [9]: 8 fold
